Data on two molecules can be found in patent publication US11766479 (ZHEJIANG SHIMAI PHARMACEUTICAL, dated 2023).

Experiment [1] addresses T1, recombinant human ENPP3 (full-length extracellular domain) (human, UniProt O14638 31-875).
T1 construct: extracellular domain; Bought protein; also called Human ENPP3 (CD203c) protein
T1 sequence (looked up): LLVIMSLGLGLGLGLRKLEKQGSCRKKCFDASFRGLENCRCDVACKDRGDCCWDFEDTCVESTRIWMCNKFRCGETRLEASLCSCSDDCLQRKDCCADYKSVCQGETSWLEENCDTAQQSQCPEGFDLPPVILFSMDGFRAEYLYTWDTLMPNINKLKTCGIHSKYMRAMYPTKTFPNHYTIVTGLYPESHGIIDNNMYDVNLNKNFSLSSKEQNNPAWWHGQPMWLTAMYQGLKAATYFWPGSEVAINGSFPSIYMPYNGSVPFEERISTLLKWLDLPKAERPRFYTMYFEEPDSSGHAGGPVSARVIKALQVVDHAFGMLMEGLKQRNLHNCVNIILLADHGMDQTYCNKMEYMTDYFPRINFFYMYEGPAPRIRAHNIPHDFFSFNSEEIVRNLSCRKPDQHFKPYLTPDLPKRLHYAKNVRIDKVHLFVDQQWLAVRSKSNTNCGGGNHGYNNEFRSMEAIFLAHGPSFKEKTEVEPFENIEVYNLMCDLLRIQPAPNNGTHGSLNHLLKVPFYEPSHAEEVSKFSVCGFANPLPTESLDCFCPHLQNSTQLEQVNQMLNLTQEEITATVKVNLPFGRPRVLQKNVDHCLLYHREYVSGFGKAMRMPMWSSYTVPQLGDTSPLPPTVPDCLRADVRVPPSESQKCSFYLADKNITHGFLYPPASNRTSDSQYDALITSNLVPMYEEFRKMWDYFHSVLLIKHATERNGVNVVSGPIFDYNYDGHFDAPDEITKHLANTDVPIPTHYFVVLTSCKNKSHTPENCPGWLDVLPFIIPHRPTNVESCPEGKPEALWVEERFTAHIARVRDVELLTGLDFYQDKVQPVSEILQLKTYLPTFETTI
Briefly: ELISA, recombinant human ENPP3 coated at 200 ng per well, detection with HRP anti-FLAG. How it is done: The hexahistidine (HHHHHH, SEQ ID NO: 35)-tagged 3A10 Fab was expressed in *E. coli* strain HB2151 and purified from the soluble fraction of periplasm by using the Ni-NTA resin. Then ELISA was performed by using standard protocols to measure binding affinity to recombinant human ENPP3 (full-length extracellular domain). Briefly, the recombinant human ENPP3 (ACROBiosystems) was coated on Corning EIA/RIA high-binding 96-well plates (Corning Inc.) at 200 ng per well overnight at 4° C. and blocked with 3% nonfat milk in PBS (pH7.4). Five-fold serially diluted antibodies were added accordingly and then incubated at room temperature for 2 h. The plates were washed with PBS containing 0.05% TWEEN® 20. Bound antibodies were detected by HRP-conjugated anti-FLAG tag antibody (Sino Biological). The assay was developed at room temperature with TMB substrate (Solarbio) and OD value was measured at 450 nm with a microplate reader.

The target in experiment [2] is T1, recombinant human ENPP3 (full-length …). Briefly: ELISA, recombinant human ENPP3 coated at 100 ng per well, detection with anti-human IgG Fc-peroxidase. As for the experimental part: ELISA was performed according to standard protocols, to determine binding affinity of anti-ENPP3 3A10 mAb to recombinant human ENPP3 (AcroBiosystems). Briefly, recombinant human ENPP3 was coated on Corning EIA/RIA high-binding 96-well plates (Corning Inc.) at 100 ng per well overnight at 4° C. and blocked with 3% nonfat milk in PBS (pH7.4). Five-fold serially diluted antibodies were added and incubated at 37° C. for 1 h. The plates were washed with PBS containing 0.05% TWEEN® 20. Bound antibodies were detected by anti-human IgG (Fc-specific)-peroxidase antibody (Sigma). The assay was developed at room temperature with TMB substrate (Solarbio) and monitored at 450 nm with a microplate reader. The half-maximal binding ($EC50$) was calculated by fitting the data to the Langmuir adsorption isotherm.

B1: hexahistidine-tagged 3A10 Fab (Fab, V domains shown)
VH: EVQLVESGGGLVKPGGSLRLSCAASGFTFSNAWMSWVRQAPGKGLEWVSYISSSGSTIYYADSVKGRFTISRDNAKNSLYLQMNSLRAEDTAVYYCARLAGPYYFDYWGQGTLVTVSS
VL: QSVVTQPPSVSAAPGQKVTISCSGSSSNIGNNYVSWYQQLPGTAPKLLIYDNNKRPSGIPDRFSGSKSGTSATLGIDGLRTGDEAEYFCGVWDSSLRAELFAGGTKVTVL
notes: Human Fab from a phage library with a lambda light chain, made in E. coli HB2151; also called Fab 3A10; anti-ENPP3 Fab 3A10
As for B1, the EC50 in experiment [1] amounted to 9.17 nM.

B2: anti-ENPP3 3A10 mAb (antibody, human IgG1, lambda, V domains shown)
VH: EVQLVESGGGLVKPGGSLRLSCAASGFTFSNAWMSWVRQAPGKGLEWVSYISSSGSTIYYADSVKGRFTISRDNAKNSLYLQMNSLRAEDTAVYYCARLAGPYYFDYWGQGTLVTVSS
VL: QSVVTQPPSVSAAPGQKVTISCSGSSSNIGNNYVSWYQQLPGTAPKLLIYDNNKRPSGIPDRFSGSKSGTSATLGIDGLRTGDEAEYFCGVWDSSLRAELFAGGTKVTVLS
notes: Intact human IgG1 with wild type Fc and a lambda light chain, expressed in 293FS cells; also called anti-ENPP3 monoclonal antibody
Turning to B2, the EC50 in experiment [2] came out at 0.107 nM.
